Data taken from the Human Domainome abundance scans (Beltran et al. 2025).
± gives the uncertainty stated by the source.

B1: Steroid hormone receptor ERR2, residues 100 to 176; numbered along this chain, O95718 (parent)
chain: KRLCLVCGDIASGYHYGVASCEACKAFFKRTIQGNIEYSCPATNECEITKRRRKSCQACRFMKCLKVGMLKEGVRLD

Variants of: B1
Experiment: abundance fitness (aPCA) (normalised: wild type 0, dead -1); higher = more abundant; growth selection in yeast, the domain comes from the species named
Conditions: Homo sapiens

Abundance fitness of substitutions, site by site:
I32: Q -0.422 ± 0.082, K -0.337 ± 0.08, E -0.148 ± 0.053, F -0.115 ± 0.12, T -0.222 ± 0.067, S -0.184 ± 0.059, L -0.362 ± 0.059, G -0.344 ± 0.048, D -0.642 ± 0.17, A -0.21 ± 0.054, M -0.47 ± 0.096, P -0.589 ± 0.16, V 0.055 ± 0.044, C -0.803 ± 0.26, N -0.568 ± 0.19
F28: Y -0.78 ± 0.2, Q -0.761 ± 0.14, E -0.638 ± 0.084, R -0.757 ± 0.065, C -0.843 ± 0.16, K -0.694 ± 0.11, S -0.832 ± 0.1, T -0.664 ± 0.12, L -0.413 ± 0.051, H -0.748 ± 0.18, A -0.321 ± 0.054, N -0.922 ± 0.35, G -0.687 ± 0.055, P -0.725 ± 0.14, V -0.315 ± 0.047, W 0.167 ± 0.039
A19: W -0.307 ± 0.057, L -0.046 ± 0.041, C -0.41 ± 0.1, R -0.331 ± 0.041, I -0.464 ± 0.14, F -0.326 ± 0.14, T -0.085 ± 0.056, Y -0.223 ± 0.092, P -0.065 ± 0.074, K -0.135 ± 0.055, S 0.049 ± 0.045, D 0.046 ± 0.067, Q -0.113 ± 0.057, N 0.005 ± 0.085, M -0.117 ± 0.055, E 0.043 ± 0.05, V 0.035 ± 0.038
Q33: M -0.279 ± 0.087, C -0.114 ± 0.068, H -0.229 ± 0.11, D -0.081 ± 0.082, G -0.165 ± 0.043, R -0.307 ± 0.047, I -0.697 ± 0.22, T -0.193 ± 0.089, L -0.146 ± 0.051, V -0.148 ± 0.048, S -0.252 ± 0.067, Y -0.054 ± 0.14, A -0.075 ± 0.054, N -0.383 ± 0.13, K -0.212 ± 0.094, E -0.03 ± 0.06, W -0.411 ± 0.073, F -0.577 ± 0.22
C21: G -0.866 ± 0.078, D -0.518 ± 0.3, E -0.814 ± 0.11, L -0.625 ± 0.076, M -0.961 ± 0.15, I -0.693 ± 0.14, N -1 ± 0.38, Q -1.01 ± 0.19, Y -0.89 ± 0.41, W -0.94 ± 0.15, K -0.679 ± 0.11, S -0.532 ± 0.077, F -1.04 ± 0.37, R -0.761 ± 0.075, V -0.818 ± 0.09, T -0.871 ± 0.14
A26: F -0.467 ± 0.12, L -0.135 ± 0.043, S -0.338 ± 0.063, Y -0.561 ± 0.17, D 0.035 ± 0.081, K -0.229 ± 0.066, V 0.114 ± 0.043, P -0.569 ± 0.11, I -0.334 ± 0.18, W -0.075 ± 0.042, Q 0.051 ± 0.05, G 0.121 ± 0.036, M -0.116 ± 0.058, H 0.095 ± 0.089, N -0.504 ± 0.17, E 0.162 ± 0.048, C -0.046 ± 0.061
Y16: D 0.008 ± 0.054, G -0.08 ± 0.045, T -0.418 ± 0.059, P -0.355 ± 0.067, L -0.332 ± 0.046, N -0.093 ± 0.069, I -0.342 ± 0.087, Q -0.366 ± 0.078, C -0.213 ± 0.077, E -0.06 ± 0.055, M -0.239 ± 0.074, K -0.315 ± 0.084, W -0.103 ± 0.074, V -0.115 ± 0.041, H -0.378 ± 0.14, S -0.276 ± 0.05
F27: M -0.473 ± 0.073, D -0.751 ± 0.18, V -0.535 ± 0.064, K -0.506 ± 0.077, A -0.621 ± 0.071, N -1.01 ± 0.27, P -0.573 ± 0.12, H -0.765 ± 0.22, R -0.715 ± 0.061, Q -0.945 ± 0.13, S -0.746 ± 0.093, L -0.204 ± 0.043, W -0.578 ± 0.068, I -0.434 ± 0.16, C -0.119 ± 0.063, G -0.745 ± 0.06
G13: Y -0.867 ± 0.33, M -0.539 ± 0.19, N -0.362 ± 0.21, S -0.555 ± 0.12, P -0.393 ± 0.18, R -0.675 ± 0.14, Q -0.244 ± 0.2, V -0.38 ± 0.09, W -0.64 ± 0.31, L -0.743 ± 0.12, T -0.509 ± 0.17
T31: V -0.223 ± 0.048, N -0.546 ± 0.35, H -0.655 ± 0.18, R -0.678 ± 0.06, W -0.925 ± 0.11, D -0.724 ± 0.2, G -0.484 ± 0.052, S -0.175 ± 0.054, I -0.295 ± 0.12, L -0.83 ± 0.083, A -0.353 ± 0.061, M -0.223 ± 0.073, P -0.951 ± 0.19, C -0.423 ± 0.086, F -1.1 ± 0.43, E -0.744 ± 0.12
G17: Q -0.748 ± 0.11, W -0.359 ± 0.075, K -0.477 ± 0.092, D -0.091 ± 0.11, R -0.495 ± 0.055, A -0.075 ± 0.045, V -0.413 ± 0.055, S -0.266 ± 0.056, F -0.551 ± 0.26, H -0.356 ± 0.19, L -0.601 ± 0.068, T -0.337 ± 0.078, E -0.027 ± 0.071, P -0.416 ± 0.093
H15: K -0.363 ± 0.099, Y -0.085 ± 0.14, W -0.1 ± 0.066, Q -0.097 ± 0.13, C -0.435 ± 0.11, T -0.356 ± 0.094, L -0.223 ± 0.062, M -0.325 ± 0.089, F -0.197 ± 0.088, P -0.32 ± 0.092, E -0.045 ± 0.085, N -0.143 ± 0.077, G -0.068 ± 0.048, D -0.211 ± 0.1, V -0.369 ± 0.071, I -0.115 ± 0.081
C24: W -0.784 ± 0.075, S -0.869 ± 0.11, R -0.744 ± 0.061, Y -0.837 ± 0.2, L -0.787 ± 0.071, K -1.07 ± 0.2, N -0.939 ± 0.3, A -0.897 ± 0.095, P -1.13 ± 0.22, I -0.707 ± 0.21, V -0.906 ± 0.084, Q -0.685 ± 0.12, G -0.903 ± 0.069, T -1 ± 0.15, M -0.859 ± 0.11, D 0.265 ± 0.07
G34: A 0.135 ± 0.043
S20: A 0.353 ± 0.038, Q -0.007 ± 0.055, D -0.218 ± 0.094, G 0.282 ± 0.032, Y -0.109 ± 0.12, P -0.321 ± 0.079, L -0.185 ± 0.048, V 0.34 ± 0.039, F -0.485 ± 0.12, W -0.052 ± 0.047, T 0.346 ± 0.047, E -0.232 ± 0.051, N 0.131 ± 0.077, R -0.381 ± 0.048, K -0.218 ± 0.059, C 0.414 ± 0.047, M -0.322 ± 0.066, I 0.26 ± 0.075
A23: R 0.166 ± 0.037, F -0.538 ± 0.24, D 0.049 ± 0.1, H -0.16 ± 0.099, E 0.094 ± 0.054, P 0.023 ± 0.063, V -0.014 ± 0.046, Q -0.039 ± 0.064, Y -0.56 ± 0.18, C 0.094 ± 0.067, N -0.658 ± 0.21, K -0.03 ± 0.059, G 0.321 ± 0.035, T -0.376 ± 0.091, I -0.806 ± 0.41, L -0.371 ± 0.057
K25: Q 0.317 ± 0.045, V 0.344 ± 0.034, A 0.445 ± 0.035, R 0.208 ± 0.031, T 0.146 ± 0.046, E 0.41 ± 0.037, P 0.278 ± 0.051, Y 0.273 ± 0.067, I 0.091 ± 0.063, S 0.222 ± 0.04, M 0.286 ± 0.048, G 0.41 ± 0.029, F 0.194 ± 0.063, L 0.224 ± 0.033, D 0.375 ± 0.049, H 0.262 ± 0.062, C 0.284 ± 0.051
R30: Y -0.799 ± 0.23, C -0.573 ± 0.12, T -0.193 ± 0.087, N -0.381 ± 0.38, F -0.763 ± 0.19, A -0.312 ± 0.065, M -0.355 ± 0.082, G -0.006 ± 0.037, H -0.357 ± 0.14, W -0.121 ± 0.05, P -0.989 ± 0.26, E 0.125 ± 0.049, L -0.466 ± 0.061, D -0.255 ± 0.16, I -0.775 ± 0.24, Q 0.109 ± 0.057
V18: M 0.218 ± 0.42, P -0.331 ± 0.078, F -0.428 ± 0.089, L -0.613 ± 0.071, Q -0.375 ± 0.089, Y -0.663 ± 0.14, A -0.26 ± 0.072, G -0.259 ± 0.066, C -0.169 ± 0.076, D -0.471 ± 0.18, E -0.399 ± 0.14, H -0.245 ± 0.1, R -0.384 ± 0.07, W -0.657 ± 0.094
E22: P -0.188 ± 0.071, K -0.443 ± 0.091, L -0.233 ± 0.046, W -0.142 ± 0.053, F -0.449 ± 0.12, Y -0.152 ± 0.076, H -0.091 ± 0.074, I -0.459 ± 0.12, V -0.131 ± 0.048, S -0.154 ± 0.05, Q -0.092 ± 0.058, A 0.012 ± 0.046, T -0.19 ± 0.061, N 0.322 ± 0.068
Y14: N -0.022 ± 0.11, A 0.163 ± 0.063, G -0.017 ± 0.051, I 0.03 ± 0.091, W 0.032 ± 0.062, M -0.276 ± 0.083, R -0.446 ± 0.075, E 0.101 ± 0.066, H -0.034 ± 0.093, P -0.315 ± 0.12, Q -0.145 ± 0.083, V 0.136 ± 0.043, L 0.04 ± 0.047, F 0.063 ± 0.083, K 0.03 ± 0.077, C 0.068 ± 0.079, S -0.111 ± 0.055
K29: A 0.18 ± 0.043, T 0.215 ± 0.049, H -0.067 ± 0.1, C -0.335 ± 0.11, V 0.079 ± 0.038, G 0.096 ± 0.034, E 0.217 ± 0.053, F -0.132 ± 0.087, M -0.064 ± 0.065, Q 0.129 ± 0.054, R 0.085 ± 0.039, Y -0.65 ± 0.25, I -0.481 ± 0.12, D -0.014 ± 0.072, S 0.084 ± 0.045, N -0.193 ± 0.11, P -0.841 ± 0.16
